Source: PMC11331505, “Binding Behavior of Human Hepatoma-Derived Growth Factor on SMYD1”

Legend:
D. ficus RecA (D. ficus) = test: PIFE (Cy3 fluorescence enhancement); settings: 1 nM DNA; HDGF assays: 46 mM NaCl, 0.9 mM KCl, 3.3 mM Na2HPO4, 0.66 mM KH2PO4, pH 7.4; at least 1 h on ice; 1-10 nM Cy3 DNA, 10 pM-100 nM protein; RecA dsDNA control at …
HDGF C140 domain [1] = biological target: T1, HDGF C140 domain (human, UniProt P51858 101-240); test: PIFQ (Cy3 fluorescence quenching); 1 nM DNA; HDGF assays: 46 mM NaCl, 0.9 mM KCl, 3.3 mM Na2HPO4, 0.66 mM KH2PO4, pH 7.4; at least 1 h on ice; 1-10 nM Cy3 DNA, 10 pM-100 nM protein; RecA dsDNA control at pH 7.5; settings: protein: recombinant
T1 sequence (P51858 101-240): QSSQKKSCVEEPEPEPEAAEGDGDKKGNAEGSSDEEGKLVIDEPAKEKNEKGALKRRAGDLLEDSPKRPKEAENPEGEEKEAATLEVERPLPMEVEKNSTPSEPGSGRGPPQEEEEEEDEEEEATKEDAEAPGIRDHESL

HDGF S103A [2] = biological target: T2, HDGF S103A (human, UniProt P51858 1-240, S103A); test: PIFQ (Cy3 fluorescence quenching); 1 nM DNA; Hill n=0.50; HDGF assays: 46 mM NaCl, 0.9 mM KCl, 3.3 mM Na2HPO4, 0.66 mM KH2PO4, pH 7.4; at least 1 h on ice; 1-10 nM Cy3 DNA, 10 pM-100 nM protein; RecA dsDNA control at pH 7.5; settings: protein: recombinant; label: Cy3
T2 sequence (P51858 whole entry S103A): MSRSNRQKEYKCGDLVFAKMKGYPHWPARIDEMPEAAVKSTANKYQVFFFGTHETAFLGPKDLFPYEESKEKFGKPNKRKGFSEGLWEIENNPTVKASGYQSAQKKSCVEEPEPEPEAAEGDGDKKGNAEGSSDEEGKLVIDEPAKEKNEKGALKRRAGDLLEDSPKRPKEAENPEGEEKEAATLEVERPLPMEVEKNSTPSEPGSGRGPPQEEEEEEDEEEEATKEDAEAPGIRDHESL

HDGF [3] = biological target: T3, HDGF (human, UniProt P51858 1-240); test: PIFQ (Cy3 fluorescence quenching); 1 nM DNA; Hill n=0.55; HDGF assays: 46 mM NaCl, 0.9 mM KCl, 3.3 mM Na2HPO4, 0.66 mM KH2PO4, pH 7.4; at least 1 h on ice; 1-10 nM Cy3 DNA, 10 pM-100 nM protein; RecA dsDNA control at pH 7.5; settings: protein: recombinant; label: Cy3
T3 sequence (P51858 whole entry, the tested form may be a part): as the sequence (P51858 whole entry S103A) above, with A103S counted along it

HDGF PWWP domain [4] = biological target: T4, HDGF PWWP domain (human, UniProt P51858 1-100); test: PIFQ (Cy3 fluorescence quenching); 1 nM DNA; Hill n=1.00; HDGF assays: 46 mM NaCl, 0.9 mM KCl, 3.3 mM Na2HPO4, 0.66 mM KH2PO4, pH 7.4; at least 1 h on ice; 1-10 nM Cy3 DNA, 10 pM-100 nM protein; RecA dsDNA control at pH 7.5; settings: protein: recombinant; label: Cy3
T4 sequence (P51858 1-100): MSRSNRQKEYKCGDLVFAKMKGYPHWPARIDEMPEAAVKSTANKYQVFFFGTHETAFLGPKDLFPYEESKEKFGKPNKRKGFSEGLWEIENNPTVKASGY

[5] = biological target: T5, HDGF PWWP domain;HDGF C140 domain (human;human, UniProt P51858;P51858 1-100;101-240, |); test: PIFQ (Cy3 fluorescence quenching); 1 nM DNA; equal amounts premixed; Hill n=0.50; HDGF assays: 46 mM NaCl, 0.9 mM KCl, 3.3 mM Na2HPO4, 0.66 mM KH2PO4, pH 7.4; at least 1 h on ice; 1-10 nM Cy3 DNA, 10 pM-100 nM protein; RecA dsDNA control at pH 7.5; settings: protein: recombinant;recombinant; copies: 1;1; label: Cy3
T5 sequence (P51858 1-100, chain 1 of 2): as the sequence (P51858 1-100) above
T5 sequence (P51858 101-240, chain 2 of 2): as the sequence (P51858 101-240) above

HDGF PWWP domain [6] = biological target: T4, HDGF PWWP domain; test: PIFQ (Cy3 fluorescence quenching); 1 nM DNA; n=1.00; HDGF assays: 46 mM NaCl, 0.9 mM KCl, 3.3 mM Na2HPO4, 0.66 mM KH2PO4, pH 7.4; at least 1 h on ice; 1-10 nM Cy3 DNA, 10 pM-100 nM protein; RecA dsDNA control at pH 7.5; settings: protein: recombinant; label: 5' Cy3
HDGF S103A [7] = biological target: T2, HDGF S103A; test: PIFQ (Cy3 fluorescence quenching); 1 nM DNA; Hill n=0.67; HDGF assays: 46 mM NaCl, 0.9 mM KCl, 3.3 mM Na2HPO4, 0.66 mM KH2PO4, pH 7.4; at least 1 h on ice; 1-10 nM Cy3 DNA, 10 pM-100 nM protein; RecA dsDNA control at pH 7.5; settings: protein: recombinant; label: 5' Cy3
HDGF PWWP domain [8] = biological target: T4, HDGF PWWP domain; test: PIFQ (Cy3 fluorescence quenching); 5 nM DNA; approximation model; HDGF assays: 46 mM NaCl, 0.9 mM KCl, 3.3 mM Na2HPO4, 0.66 mM KH2PO4, pH 7.4; at least 1 h on ice; 1-10 nM Cy3 DNA, 10 pM-100 nM protein; RecA dsDNA control at pH 7.5; settings: protein: recombinant; label: 5' Cy3
HDGF C140 domain [9] = biological target: T1, HDGF C140 domain; test: PIFQ (Cy3 fluorescence quenching); 1 nM DNA; up to 100 nM protein; HDGF assays: 46 mM NaCl, 0.9 mM KCl, 3.3 mM Na2HPO4, 0.66 mM KH2PO4, pH 7.4; at least 1 h on ice; 1-10 nM Cy3 DNA, 10 pM-100 nM protein; RecA dsDNA control at pH 7.5; settings: protein: recombinant; label: 5' Cy3
[10] = biological target: T5, HDGF PWWP domain;HDGF C140 domain; test: PIFQ (Cy3 fluorescence quenching); 1 nM DNA; equal amounts premixed; Hill n=0.63; HDGF assays: 46 mM NaCl, 0.9 mM KCl, 3.3 mM Na2HPO4, 0.66 mM KH2PO4, pH 7.4; at least 1 h on ice; 1-10 nM Cy3 DNA, 10 pM-100 nM protein; RecA dsDNA control at pH 7.5; settings: protein: recombinant;recombinant; copies: 1;1; label: 5' Cy3
HDGF [11] = biological target: T3, HDGF; test: PIFQ (Cy3 fluorescence quenching); 1 nM DNA; Hill fit (approximation model 0.017 nM); HDGF assays: 46 mM NaCl, 0.9 mM KCl, 3.3 mM Na2HPO4, 0.66 mM KH2PO4, pH 7.4; at least 1 h on ice; 1-10 nM Cy3 DNA, 10 pM-100 nM protein; RecA dsDNA control at pH 7.5; settings: protein: recombinant; label: 5' Cy3
HDGF [12] = biological target: T3, HDGF; test: PIFQ (Cy3 fluorescence quenching); 5 nM DNA; Hill fit (approximation model 0.019 nM); HDGF assays: 46 mM NaCl, 0.9 mM KCl, 3.3 mM Na2HPO4, 0.66 mM KH2PO4, pH 7.4; at least 1 h on ice; 1-10 nM Cy3 DNA, 10 pM-100 nM protein; RecA dsDNA control at pH 7.5; settings: protein: recombinant; label: 5' Cy3
HDGF [13] = biological target: T3, HDGF; test: PIFQ (Cy3 fluorescence quenching); 10 nM DNA; Hill fit (approximation model 0.031 nM); HDGF assays: 46 mM NaCl, 0.9 mM KCl, 3.3 mM Na2HPO4, 0.66 mM KH2PO4, pH 7.4; at least 1 h on ice; 1-10 nM Cy3 DNA, 10 pM-100 nM protein; RecA dsDNA control at pH 7.5; settings: protein: recombinant; label: 5' Cy3
HDGF PWWP domain [14] = biological target: T4, HDGF PWWP domain; test: PIFQ (Cy3 fluorescence quenching); 10 nM DNA; approximation model; less reliable (protein depletion); HDGF assays: 46 mM NaCl, 0.9 mM KCl, 3.3 mM Na2HPO4, 0.66 mM KH2PO4, pH 7.4; at least 1 h on ice; 1-10 nM Cy3 DNA, 10 pM-100 nM protein; RecA dsDNA control at pH 7.5; settings: protein: recombinant; label: 5' Cy3
HDGF S103A [15] = biological target: T2, HDGF S103A; test: PIFQ (Cy3 fluorescence quenching); 1 nM DNA; HDGF assays: 46 mM NaCl, 0.9 mM KCl, 3.3 mM Na2HPO4, 0.66 mM KH2PO4, pH 7.4; at least 1 h on ice; 1-10 nM Cy3 DNA, 10 pM-100 nM protein; RecA dsDNA control at pH 7.5; settings: protein: recombinant; label: 5' Cy3
HDGF [16] = biological target: T3, HDGF; test: as above; settings: protein: recombinant; label: 5' Cy3
HDGF PWWP domain [17] = biological target: T4, HDGF PWWP domain; test: PIFQ (Cy3 fluorescence quenching); 1 nM DNA; Hill fit; HDGF assays: 46 mM NaCl, 0.9 mM KCl, 3.3 mM Na2HPO4, 0.66 mM KH2PO4, pH 7.4; at least 1 h on ice; 1-10 nM Cy3 DNA, 10 pM-100 nM protein; RecA dsDNA control at pH 7.5; settings: protein: recombinant; label: 5' Cy3
E. coli RecA = E. coli RecA (E. coli, UniProt P0A7G6 2-353); test: PIFE (Cy3 fluorescence enhancement); 1 nM DNA; approximation model; HDGF assays: 46 mM NaCl, 0.9 mM KCl, 3.3 mM Na2HPO4, 0.66 mM KH2PO4, pH 7.4; at least 1 h on ice; 1-10 nM Cy3 DNA, 10 pM-100 nM protein; RecA dsDNA control at pH 7.5; settings: label: Cy3
E. coli RecA, sequence (P0A7G6 2-353): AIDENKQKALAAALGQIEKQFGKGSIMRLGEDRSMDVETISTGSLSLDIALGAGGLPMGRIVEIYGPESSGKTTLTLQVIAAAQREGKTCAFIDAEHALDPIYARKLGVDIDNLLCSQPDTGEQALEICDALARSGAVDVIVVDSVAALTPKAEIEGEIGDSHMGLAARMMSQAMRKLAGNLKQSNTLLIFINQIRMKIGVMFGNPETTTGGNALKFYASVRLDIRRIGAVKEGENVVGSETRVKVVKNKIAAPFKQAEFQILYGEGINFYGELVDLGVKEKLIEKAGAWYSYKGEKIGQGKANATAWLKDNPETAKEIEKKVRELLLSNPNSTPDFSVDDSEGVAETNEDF

HDGF PWWP domain [18] = biological target: T4, HDGF PWWP domain; test: PIFQ (Cy3 fluorescence quenching); 1 nM DNA; Hill n=1.0; unit not printed in legend; HDGF assays: 46 mM NaCl, 0.9 mM KCl, 3.3 mM Na2HPO4, 0.66 mM KH2PO4, pH 7.4; at least 1 h on ice; 1-10 nM Cy3 DNA, 10 pM-100 nM protein; RecA dsDNA control at pH 7.5; settings: protein: recombinant; label: 3' Cy3
HDGF [19] = biological target: T3, HDGF; test: PIFQ (Cy3 fluorescence quenching); 1 nM DNA; Hill n=0.60; unit not printed in legend; HDGF assays: 46 mM NaCl, 0.9 mM KCl, 3.3 mM Na2HPO4, 0.66 mM KH2PO4, pH 7.4; at least 1 h on ice; 1-10 nM Cy3 DNA, 10 pM-100 nM protein; RecA dsDNA control at pH 7.5; settings: protein: recombinant; label: 3' Cy3

Question: Which Kd (D. ficus RecA (D. ficus)) does the source give for “TTTTTTTTTTTTTTTTTTTTTTTTTTTTTTTTTTTTTTTT [poly(dT)40 ssDNA]” here?
Answer: 13.6 nM

Question: Which Kd (D. ficus RecA (D. ficus)) does the source give for “TTTTTTTTTTTTTTTTTTTTTTTTTTTTTTTTTTTTTTTT (double strand) [poly(T-A)40 dsDNA]” here?
Answer: 19 nM

B1: GC-rich dsDNA (dsDNA)
DNA 1: TCCTCGCTGCCGTCGGCCA
DNA 2: TGGCCGACGGCAGCGAGGA
Question: Which results are given for B1?
Answer: binding result (HDGF C140 domain [1]; label: Cy3): no binding; Kd (HDGF S103A [2]): 0.34 ± 0.06 nM; Kd (HDGF [3]): 0.25 ± 0.03 nM; Kd (HDGF PWWP domain [4]): 0.97 ± 0.19 nM; Kd [5]: 0.45 ± 0.06 nM

B2: 15 bp SMYD1 dsDNA (5' Cy3) (dsDNA)
DNA 1: TTCAAGACCAGCCTG
DNA 2: CAGGCTGGTCTTGAA
Question: What does the source list for B2?
Answer: Kd (HDGF PWWP domain [6]): 0.94 ± 0.1 nM; Kd (HDGF S103A [7]): 0.072 ± 0.003 nM; Kd (HDGF PWWP domain [8]): ~1 nM; binding result (HDGF C140 domain [9]): no binding; Kd [10]: 0.12 ± 0.04 nM; Kd (HDGF [11]): 0.095 ± 0.016 nM; Kd (HDGF [12]): 0.085 ± 0.024 nM; Kd (HDGF [13]): 0.076 ± 0.02 nM; Kd (HDGF PWWP domain [14]): 1.6 ± 0.2 nM

B3: poly(T-A)15 dsDNA (dsDNA)
DNA 1: TTTTTTTTTTTTTTT
DNA 2: AAAAAAAAAAAAAAA
Question: What does the source list for B3?
Answer: binding result (HDGF C140 domain [1]; label: 5' Cy3): no binding; binding result (HDGF S103A [15]): no binding; binding result (HDGF [16]): no binding; Kd (HDGF PWWP domain [17]): 1.6 ± 0.2 nM

Question: With TTTTTTTTTTTTTTTTTTTTTTTTTTTTTTTTTTTTTTTT (ssDNA) [poly(dT)40 ssDNA] as the molecule, how does the Kd (E. coli RecA) read?
Answer: 34.5 ± 6.8 nM

B4: 15 bp SMYD1 dsDNA (3' Cy3) (dsDNA)
DNA 1: TTCAAGACCAGCCTG
DNA 2: CAGGCTGGTCTTGAA
Question: How did the Kd (HDGF PWWP domain [18]) turn out when B4 was run?
Answer: 1.4 ± 0.2 nM

Question: And the Kd (HDGF [19])?
Answer: 0.08 ± 0.004 nM
